The record followed here is article PMC2819845 (Biochemistry, 2009).

This data set deals with the molecule itself. The data set is described as follows: crystal structure.

B1: phosphorylated Sts-2PGM (phospho-His366) (domain or fragment, mouse, UniProt Q3V3E1 354-624, looked up)
chain: ATISRRGILVVRHGERVDQVFGKSWLQQCTTADGKYYRPDLNFPRSLPRRSNGIKDFENDPPLSSCGIFQARLAGEALLDSGVRVTAVFASPALRCVQTAKHILEELKLEKKLKIRVEPGIFEWMKWEASKATLTFLTLEELKEANFNVDLDYRPALPRCSLMPAESYDQYVERCAVSMGQIINTCPQDMGITLIVSHSSALDSCTRPLLGLPPRECGDFAQLVRKIPSLGMCFCEENREDGKWDLVNPPVKTLTHGANSVFNWRNWISSN
modifications: phosphohistidine at 366 (on NE2; occupancy between 0.50 and 0.70, in three of the four monomers)
For the protein B1, the binding result is listed as “binds”.
